One block for each substance: values may come before it.
How the values were obtained:
Assay in all cases: native gel or EMSA
[1] = target: CthedisKatG W90V (Chaetomium thermophilum var. dissitum)
[2] = target: CthedisKatG, thermophilic catalase–peroxidase from Chaetomium thermophilum var. dissitum (wild type) (Chaetomium thermophilum var. dissitum)
[3] = target: CthedisKatG W90F (Chaetomium thermophilum var. dissitum)

- stoichiometry N [1]: 2
Substance: CthedisKatG W90V (enzyme)

- stoichiometry N [2]: 2
Substance: CthedisKatG, thermophilic catalase–peroxidase from Chaetomium thermophilum var. dissitum (wild type) (enzyme)

- stoichiometry N [3]: 2
Substance: CthedisKatG W90F (enzyme)
